In patent publication US20110135573A1 (DYAX, published 2011):

Key:
[1] = target: T1, Mouse MMP-9 (R&D, 909-MM), APMA-activated (mouse, UniProt P41245 108-730, limits assumed); experiment: Ki,app, enzyme inhibition assay (fluorogenic peptide substrate), IgG
T1 construct: also called mMMP-9; mouse MMP-9 (R&D Systems #909-MM-010)

[2] = target: T2, Human MMP-9 catalytic domain (BIOMOL, SE-244) (human, UniProt P14780 107-457, limits assumed); experiment: as above
T2 construct: domain: catalytic domain; also called Cat-huMMP-9; cat-huMMP-9
T2 sequence (P14780 107-457 limits assumed): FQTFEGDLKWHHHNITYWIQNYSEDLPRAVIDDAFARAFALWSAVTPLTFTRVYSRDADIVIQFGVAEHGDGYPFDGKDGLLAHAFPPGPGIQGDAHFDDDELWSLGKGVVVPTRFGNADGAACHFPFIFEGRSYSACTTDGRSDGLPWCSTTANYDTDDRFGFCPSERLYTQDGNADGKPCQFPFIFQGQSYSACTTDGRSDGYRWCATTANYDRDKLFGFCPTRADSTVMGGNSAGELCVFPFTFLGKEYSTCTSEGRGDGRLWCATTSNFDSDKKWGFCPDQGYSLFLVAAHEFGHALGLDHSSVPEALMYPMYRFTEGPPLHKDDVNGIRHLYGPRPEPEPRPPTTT

[3] = target: T3, human MMP-2 (Biomol #SE-237) (human, UniProt P08253 110-452, limits assumed); experiment: as above
T3 construct: also called hMMP-2
T3 sequence (P08253 110-452 limits assumed): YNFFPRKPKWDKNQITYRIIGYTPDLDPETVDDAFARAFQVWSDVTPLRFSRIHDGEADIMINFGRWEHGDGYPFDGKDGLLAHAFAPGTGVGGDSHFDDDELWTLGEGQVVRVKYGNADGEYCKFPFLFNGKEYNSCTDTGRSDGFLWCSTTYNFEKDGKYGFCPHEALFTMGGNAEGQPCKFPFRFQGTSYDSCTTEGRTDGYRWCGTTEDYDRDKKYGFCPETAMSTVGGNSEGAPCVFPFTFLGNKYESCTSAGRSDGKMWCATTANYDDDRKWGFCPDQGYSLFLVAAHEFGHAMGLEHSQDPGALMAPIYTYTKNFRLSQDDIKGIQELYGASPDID

[4] = target: T2, Human MMP-9 catalytic domain (BIOMOL, …); experiment: Ki,app, enzyme inhibition assay (fluorogenic peptide substrate), medium-scale sFab
Protocol: (§1) Target enzymes were incubated with inhibitor for two hours at 30° C. in reaction buffer (50 mM Tris-HCl pH 7.5, 150 mM NaCl, 5 mM CaCl₂, 0.05% Brij-35) in a total volume of 90 μL using a white 96 well plate (Costar). […] An anti-MMP-2 antibody (R&D Systems polyclonal IgG #AF902) was similarly tested with 200 nM as the highest inhibitor concentration. Reactions were initiated by the addition of 10 μL of a 10× concentrated stock of substrate, Mca-Lys-Pro-Leu-Gly-Leu-Dap(Dnp)-Ala-Arg-NH2, (Bachem M-2350), at final concentration of 10 μM and monitored at 30° C. in a Molecular Devices' Gemini fluorescence plate reader. The excitation and emission wavelengths were set at 328 nm and 393 nm, respectively. Kinetic data were acquired by the increase in fluorescence, and initial rates for each condition were plotted against the total inhibitor concentration. Reactions were performed in duplicates and all data replicates were plotted in a single graph and fit to the following equation¹: […]

[5] = target: T3, human MMP-2 (Biomol #SE-237); experiment: as above
Protocol: as §1

[6] = target: T2, Human MMP-9 catalytic domain (BIOMOL, …); experiment: Ki,app, enzyme inhibition assay (fluorogenic peptide substrate), small-scale sFab
Protocol: as §1

[7] = target: T3, human MMP-2 (Biomol #SE-237); experiment: as above
Protocol: as §1

[8] = target: T1, Mouse MMP-9 (R&D, 909-MM), …; experiment: as above
Protocol: as §1

T1 sequence (P41245 108-730 limits assumed): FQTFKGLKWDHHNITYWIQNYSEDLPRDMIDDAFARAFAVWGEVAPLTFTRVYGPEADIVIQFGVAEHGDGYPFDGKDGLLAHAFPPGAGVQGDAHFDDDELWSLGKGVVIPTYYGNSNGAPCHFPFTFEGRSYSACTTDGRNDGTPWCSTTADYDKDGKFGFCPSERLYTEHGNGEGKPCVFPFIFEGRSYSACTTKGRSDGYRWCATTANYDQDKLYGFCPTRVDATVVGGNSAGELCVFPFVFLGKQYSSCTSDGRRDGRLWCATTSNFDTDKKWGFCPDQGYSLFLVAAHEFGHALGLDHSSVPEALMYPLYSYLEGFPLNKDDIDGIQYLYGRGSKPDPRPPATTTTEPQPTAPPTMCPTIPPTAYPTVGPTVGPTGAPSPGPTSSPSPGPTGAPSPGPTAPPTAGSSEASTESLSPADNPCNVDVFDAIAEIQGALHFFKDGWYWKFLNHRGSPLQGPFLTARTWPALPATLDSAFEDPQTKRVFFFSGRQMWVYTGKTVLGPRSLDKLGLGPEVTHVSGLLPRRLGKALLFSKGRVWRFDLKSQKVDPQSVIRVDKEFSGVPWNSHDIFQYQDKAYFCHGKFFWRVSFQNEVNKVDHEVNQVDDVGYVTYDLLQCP

| Binder | Ki [1] | Ki [2] | Ki [3] | Ki [4] | Ki [5] | Ki [6] | Ki [7] | Ki [8] |
| --- | --- | --- | --- | --- | --- | --- | --- | --- |
| X0106-B02 (antibody, V domains shown, Produced and tested as IgG1; germlined, optimized version of M0276-F11) VH: EVQLLESGGGLVQPGGSLRLSCAASGFTFSWYDMWWVRQAPGKGLEWVSVIYSSGGPTFYADSVKGRFTISRDNSKNTLYLQMNSLRAEDTAVYYCAKDRAYGDYVGWNGFDYWGQGTLVTVSS VL: EIVLTQSPATLSLSPGERATLSCRASQSISSFLAWYQQKPGQAPRLLIYDASYRATGIPARFSGSGSGTDFTLTISSLEPEDFAVYYCQQRGNWPITFGQGTRLEIK | 240 pM | 80 pM | 310 pM | – | – | – | – | – |
| X0106-E04 (antibody, V domains shown, Produced and tested as IgG1; germlined, optimized version of M0275-D03; also called X0106-E4) VH: EVQLLESGGGLVQPGGSLRLSCAASGFTFSQYDMWWVRQAPGKGLEWVSVIYPSGTTFYADSVKGRFTISRDNSKNTLYLQMNSLRAEDTAVYYCAKDRAYGDYVGWNGFDYWGQGTLVTVSS VL: EIVLTQSPATLSLSPGERATLSCRASQSISSFLAWYQQKPGQAPRLLIYDASYRATGIPARFSGSGSGTDFTLTISSLEPEDFAVYYCQQRGNWPITFGQGTRLEIK | 230 pM | 130 pM | 380 pM | – | – | – | – | – |
| M0273-C10 (Fab, V domains shown, sFab; variable domains only; also called M273-C10) VH: EVQLLESGGGLVQPGGSLRLSCAASGFTFSFYPMWWVRQAPGKGLEWVSYIYPSGGATFYADSVKGRFTISRDNSKNTLYLQMNSLRAEDTAVYYCAKDRAYGDYVGWNGFDYWGQGTLVTVSS VL: DIQMTQSPATLSLSPGERATLSCRASQSISSFLAWYQQKPGQAPRLLIYDASYRATGIPARFSGSGSGTDFTLTISSLEPEDYAVYYCQQRGNWPITFGQGTRLEIK | – | – | – | 1000 pM | 2000 pM | 900 pM | – | – |
| M0273-B10 (Fab, V domains shown, sFab; variable domains only; also called M273-B10) VH: EVQLLESGGGLVQPGGSLRLSCAASGFTFSKYAMIWVRQAPGKGLEWVSWIPPSGGYTSYADSVKGRFTISRDNSKNTLYLQMNSLRAEDTAVYYCAKDRAYGDYVGWNGFDYWGQGTLVTVSS VL: DIQMTQSPATLSLSPGERATLSCRASQSISSFLAWYQQKPGQAPRLLIYDASYRATGIPARFSGSGSGTDFTLTISSLEPEDYAVYYCQQRGNWPITFGQGTRLEIK | – | – | – | – | – | 700 pM | – | – |
| X0106-F05 (antibody, V domains shown, Produced and tested as IgG1; germlined, optimized version of M0307-F04) VH: EVQLLESGGGLVQPGGSLRLSCAASGFTFSLYDMWWVRQAPGKGLEWVSVIYSSGGYTGYADSVKGRFTISRDNSKNTLYLQMNSLRAEDTAVYYCAKDRAYGDYVGWNGFDYWGQGTLVTVSS VL: EIVLTQSPATLSLSPGERATLSCRASQSISSFLAWYQQKPGQAPRLLIYDASYRATGIPARFSGSGSGTDFTLTISSLEPEDFAVYYCQQRGNWPITFGQGTRLEIK | 100 pM | 150 pM | 300 pM | – | – | – | – | – |
| X0106-C03 (antibody, V domains shown, Produced and tested as IgG1; germlined, optimized version of M0274-G08; printed as X0106-C04 in some sentences; also called X0106-C04) VH: EVQLLESGGGLVQPGGSLRLSCAASGFTFSVYDMWWVRQAPGKGLEWVSVIYPSGGATYYADSVKGRFTISRDNSKNTLYLQMNSLRAEDTAVYYCAKDRAYGDYVGWNGFDYWGQGTLVTVSS VL: EIVLTQSPATLSLSPGERATLSCRASQSISSFLAWYQQKPGQAPRLLIYDASYRATGIPARFSGSGSGTDFTLTISSLEPEDFAVYYCQQRGNWPITFGQGTRLEIK | 220 pM | 140 pM | 420 pM | – | – | – | – | – |
| M0273-A11 (Fab, V domains shown, sFab; variable domains only; also called M273-A11) VH: EVQLLESGGGLVQPGGSLRLSCAASGFTFSRYDMWWVRQAPGKGLEWVSVISPSGGATFYADSVKGRFTISRDNSKNTLYLQMNSLRAEDTAVYYCAKDRAYGDYVGWNGFDYWGQGTLVTVSS VL: DIQMTQSPATLSLSPGERATLSCRASQSISSFLAWYQQKPGQAPRLLIYDASYRATGIPARFSGSGSGTDFTLTISSLEPEDYAVYYCQQRGNWPITFGQGTRLEIK | – | – | – | 800 pM | 2700 pM | 600 pM | – | – |
| M0272-H08 (Fab, V domains shown, sFab; variable domains only; also called M272-H08) VH: EVQLLESGGGLVQPGGSLRLSCAASGFTFSAYDMWWVRQAPGKGLEWVSVIYPSGGTTFYADSVKGRFTISRDNSKNTLYLQMNSLRAEDTAVYYCAKDRAYGDYVGWNGFDYWGQGTLVTVSS VL: DIQMTQSPATLSLSPGERATLSCRASQSISSFLAWYQQKPGQAPRLLIYDASYRATGIPARFSGSGSGTDFTLTISSLEPEDYAVYYCQQRGNWPITFGQGTRLEIK | – | – | – | – | – | 400 pM | – | – |

Other lines, results leading:

| Ki [1] | Ki [2] | Ki [3] | Ki [4] | Ki [5] | Ki [6] | Ki [7] | Ki [8] | Binder |
| --- | --- | --- | --- | --- | --- | --- | --- | --- |
| – | – | – | 500 pM | 1000 pM | 300 pM | 500 pM | – | M0301-A09 (Fab, V domains shown, sFab; variable domains only; also called M301-A09) VH: EVQLLESGGGLVQPGGSLRLSCAASGFTFSYYDMWWVRQAPGKGLEWVSVIYPSGGYTAYADSVKGRFTISRDNSKNTLYLQMNSLRAEDTAVYYCAKDRAYGDYVGWNGFDYWGQGTLVTVSS VL: DIQMTQSPATLSLSPGERATLSCRASQSISSFLAWYQQKPGQAPRLLIYDASYRATGIPARFSGSGSGTDFTLTISSLEPEDYAVYYCQQRGNWPITFGQGTRLEIK |
| – | – | – | 600 pM | 1000 pM | 600 pM | – | – | M0273-G07 (Fab, V domains shown, sFab; variable domains only; also called M273-G07) VH: EVQLLESGGGLVQPGGSLRLSCAASGFTFSHYDMWWVRQAPGKGLEWVSVIYPSGGPTYYADSVKGRFTISRDNSKNTLYLQMNSLRAEDTAVYYCAKDRAYGDYVGWNGFDYWGQGTLVTVSS VL: DIQMTQSPATLSLSPGERATLSCRASQSISSFLAWYQQKPGQAPRLLIYDASYRATGIPARFSGSGSGTDFTLTISSLEPEDYAVYYCQQRGNWPITFGQGTRLEIK |
| – | – | – | 1700 pM | > 10000 pM | 1000 pM | 1200 pM | – | M0301-D12 (Fab, V domains shown, sFab; variable domains only; also called M301-D12) VH: EVQLLESGGGLVQPGGSLRLSCAASGFTFSMYDMWWVRQAPGKGLEWVSVIYSSGGYTSYADSVKGRFTISRDNSKNTLYLQMNSLRAEDTAVYYCAKDRAYGDYVGWNGFDYWGQGTLVTVSS VL: DIQMTQSPATLSLSPGERATLSCRASQSISSFLAWYQQKPGQAPRLLIYDASYRATGIPARFSGSGSGTDFTLTISSLEPEDYAVYYCQQRGNWPITFGQGTRLEIK |
| – | – | – | 600 pM | 1700 pM | 200 pM | 1700 pM | – | M0299-A12 (Fab, V domains shown, sFab; variable domains only; also called M299-A12) VH: EVQLLESGGGLVQPGGSLRLSCAASGFTFSHYPMWWVRQAPGKGLEWVSYISSSGGGTFYADSVKGRFTISRDNSKNTLYLQMNSLRAEDTAVYYCAKDRAYGDYVGWNGFDYWGQGTLVTVSS VL: DIQMTQSPATLSLSPGERATLSCRASQSISSFLAWYQQKPGQAPRLLIYDASYRATGIPARFSGSGSGTDFTLTISSLEPEDYAVYYCQQRGNWPITFGQGTRLEIK |
| – | – | – | – | – | 700 pM | > 5000 pM | – | M0299-C09 (Fab, V domains shown, sFab; variable domains only; also called M299-C09) VH: EVQLLESGGGLVQPGGSLRLSCAASGFTFSNYPMWWVRQAPGKGLEWVSYIVPSGGATFYADSVKGRFTISRDNSKNTLYLQMNSLRAEDTAVYYCAKDRAYGDYVGWNGFDYWGQGTLVTVSS VL: DIQMTQSPATLSLSPGERATLSCRASQSISSFLAWYQQKPGQAPRLLIYDASYRATGIPARFSGSGSGTDFTLTISSLEPEDYAVYYCQQRGNWPITFGQGTRLEIK |
| – | – | – | – | – | 900 pM | 1000 pM | 2800 pM | M0306-D04 (Fab, V domains shown, sFab; variable domains only; also called M306-D04) VH: EVQLLESGGGLVQPGGSLRLSCAASGFTFSLYPMWWVRQAPGKGLEWVSSIYPSGGATFYADSVKGRFTISRDNSKNTLYLQMNSLRAEDTAVYYCAKDRAYGDYVGWNGFDYWGQGTLVTVSS VL: DIQMTQSPATLSLSPGERATLSCRASQSISSFLAWYQQKPGQAPRLLIYDASYRATGIPARFSGSGSGTDFTLTISSLEPEDYAVYYCQQRGNWPITFGQGTRLEIK |
| – | – | – | 400 pM | 500 pM | 300 pM | 900 pM | 1000 pM | M0275-E12 (Fab, V domains shown, sFab; variable domains only; also called M275-E12) VH: EVQLLESGGGLVQPGGSLRLSCAASGFTFSHYDMWWVRQAPGKGLEWVSVIYSSGGFTGYADSVKGRFTISRDNSKNTLYLQMNSLRAEDTAVYYCAKDRAYGDYVGWNGFDYWGQGTLVTVSS VL: DIQMTQSPATLSLSPGERATLSCRASQSISSFLAWYQQKPGQAPRLLIYDASYRATGIPARFSGSGSGTDFTLTISSLEPEDYAVYYCQQRGNWPITFGQGTRLEIK |
